Earlier results as cited in PMC5662943.

Biological target: PCNA (Homo sapiens) (UniProt P12004)
Chain of UniProt P12004 (P12004 whole entry): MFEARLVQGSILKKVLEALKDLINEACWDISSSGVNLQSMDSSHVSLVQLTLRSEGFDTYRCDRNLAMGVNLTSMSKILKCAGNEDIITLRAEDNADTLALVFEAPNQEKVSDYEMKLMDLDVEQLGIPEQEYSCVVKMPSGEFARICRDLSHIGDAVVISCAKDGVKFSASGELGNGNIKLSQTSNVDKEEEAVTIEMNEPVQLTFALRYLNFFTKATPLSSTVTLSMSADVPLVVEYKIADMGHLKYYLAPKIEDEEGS

For RFC (from UniProt P35251), the Kd is listed as 0.2 nM.
